Test results taken from patent publication US20160311887A1 (CAMBRIDGE ENTERPRISE, published 2016).

Experiments:
[1] = molecular target: T1, activated Protein C (APC) (human, UniProt P04070 43-197; P04070 212-461); test: ratio of rate constants, APC over thrombin
T1 construct: also called human plasma APC
Description: (§1) Rate constants of thrombin and APC inhibition were measured under pseudo-first-order conditions using an excess of serpin over protease (Table 1). Serpin and protease were incubated together for varying lengths of time and the residual activity was determined by adding an excess of chromogenic substrate for the protease (S2238 for thrombin and […] for APC). Residual protease activity was then measured by following the absorbance at 405 nm. Plots of residual protease activity over time gave the observed rate constant kobs. The second-order rate constant, ₖ₂, is the slope of the plot of kobs versus serpin concentration (fitted using a linear regression model). Standard errors of the slope are shown.

[2] = molecular target: T1, activated Protein C (APC); test: ratio of rate constants, APC over fXIa
Description: as §1
Second-order rate constants of inhibition for inhibition of fXIa by PCI and the P2KP1′K variant were measured under pseudo-first-order conditions using an excess of serpin over protease. Serpin and protease were incubated together for varying lengths of time and the residual activity determined by adding an excess of chromogenic substrate for the protease (S2366). Plots of residual protease activity over time gave the observed rate constant kobs. The second-order rate constant, k₂, is the slope of the plot of kobs versus serpin concentration (fitted using a linear regression model).

[3] = molecular target: T1, activated Protein C (APC); test: ratio of rate constants, APC over thrombin (repeated from Table 1)
[4] = molecular target: T1, activated Protein C (APC); test: ratio of rate constants, APC over fXa
Description: (§2) The inhibition of APC was reduced but still considerable, especially for the variants of α₁AT and the PCI variants in the presence of heparin. However, the specificity of PCI and α₁AT Pitts is not limited to thrombin and APC. […] In order not to inhibit coagulation, our variants also need to be specific for APC over fXa. We therefore also determined the rate constants of inhibition of PCI and α₁AT and their variants for fXa (Table 3). Rate constants were measured under pseudo-first-order conditions using an excess of serpin over protease. Serpin and protease were incubated together for varying lengths of time and the residual activity determined by adding an excess of chromogenic substrate (S2222) for the protease. Plots of residual protease activity over time gave the observed rate constant kobs. The second-order rate constant, k₂, is the slope of the plot of kobs versus serpin concentration (fitted using a linear regression model). Standard errors of the slope are shown (Table 3).

[5] = molecular target: T1, activated Protein C (APC); test: pseudo-first-order inhibition kinetics, residual chromogenic activity, no heparin
Description: as §1

[6] = molecular target: T2, thrombin (UniProt P00734 328-622); test: as above
Description: as §1

[7] = molecular target: T1, activated Protein C (APC); test: ratio of rate constants with heparin, APC over thrombin
Description: (§3) PCI, unlike α₁AT, binds heparin and this binding considerably increases its inhibition of thrombin and APC (Pratt & Church, 1992). We therefore tested the inhibition of thrombin and APC by the P1′K and P2KP1′K PCI mutants in the presence of heparin to see if the swap in specificity seen in Table 1 would persist. Rate constants were measured under pseudo-first-order conditions using an excess of PCI over protease. PCI was preincubated with an equimolar concentration of unfractionated heparin for 30 min prior to the experiment. PCI:heparin and protease were incubated together for varying lengths of time and the residual activity after certain timepoints determined by adding an excess of chromogenic substrate for the protease mixed with polybrene to bind the heparin. Plots of residual protease activity over time gave the observed rate constant kobs. The second-order rate constant, k₂, is the slope of the plot of kobs versus serpin concentration (fitted using a linear regression model). Standard errors of the slope are shown. […] This might be due to the substrate pathway or complex dissociation. As for the inhibition in the absence of heparin, the P1′K and P2KP1′K mutants of PCI, unlike the WT protein were specific for APC over thrombin (Table 2).

[8] = molecular target: T3, fXa (UniProt P00742 41-179; P00742 235-488); test: pseudo-first-order inhibition kinetics, residual chromogenic activity (S2222)
T3 construct: also called factor Xa
T3 sequence (P00742 41-179 limits assumed, form in doubt, chain 1 of 2): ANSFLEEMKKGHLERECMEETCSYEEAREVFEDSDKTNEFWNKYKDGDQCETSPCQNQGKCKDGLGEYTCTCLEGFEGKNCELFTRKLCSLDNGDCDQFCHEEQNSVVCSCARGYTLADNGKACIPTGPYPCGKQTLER
T3 sequence (P00742 235-488 limits assumed, form in doubt, chain 2 of 2): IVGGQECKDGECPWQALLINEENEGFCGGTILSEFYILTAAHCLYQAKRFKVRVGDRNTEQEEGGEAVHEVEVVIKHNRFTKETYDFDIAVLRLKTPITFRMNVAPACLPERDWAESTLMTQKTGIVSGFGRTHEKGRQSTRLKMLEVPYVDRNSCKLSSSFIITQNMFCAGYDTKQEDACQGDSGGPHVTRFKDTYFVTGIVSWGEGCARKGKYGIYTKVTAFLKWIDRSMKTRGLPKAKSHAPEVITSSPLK
Description: as §2

[9] = molecular target: T1, activated Protein C (APC); test: pseudo-first-order inhibition kinetics, residual chromogenic activity, with equimolar unfractionated heparin
Description: as §3

[10] = molecular target: T2, thrombin; test: as above
Description: as §3

[11] = molecular target: T1, activated Protein C (APC); test: pseudo-first-order inhibition kinetics (repeated from Table 1)
Description: as §1

[12] = molecular target: T2, thrombin; test: as above
Description: as §1

[13] = molecular target: T1, activated Protein C (APC); test: pseudo-first-order inhibition kinetics, residual chromogenic activity
[14] = molecular target: T3, fXa; test: as above
[15] = molecular target: T2, thrombin; test: as above

T1 sequence (P04070 43-197, chain 1 of 2): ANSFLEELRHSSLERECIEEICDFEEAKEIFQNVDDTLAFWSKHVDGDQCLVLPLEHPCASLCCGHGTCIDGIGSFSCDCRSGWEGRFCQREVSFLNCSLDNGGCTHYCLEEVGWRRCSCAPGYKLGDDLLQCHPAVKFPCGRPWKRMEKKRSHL
T1 sequence (P04070 212-461, chain 2 of 2): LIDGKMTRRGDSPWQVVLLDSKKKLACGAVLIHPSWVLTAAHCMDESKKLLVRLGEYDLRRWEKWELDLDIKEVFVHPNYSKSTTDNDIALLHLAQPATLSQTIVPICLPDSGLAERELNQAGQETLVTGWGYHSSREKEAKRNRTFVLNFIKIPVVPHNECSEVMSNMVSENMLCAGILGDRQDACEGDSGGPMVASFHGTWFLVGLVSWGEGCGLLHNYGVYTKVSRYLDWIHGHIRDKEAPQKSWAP

Binder	fold inhibition APC/thrombin [1]	inhibition of APC/fXIa [2]	inhibition of APC/thrombin [3]	fold inhibition APC/fXa [4]	second-order rate constant of inhibition [5]	second-order rate constant of inhibition [6]	fold inhibition APC/thrombin [7]	second-order rate constant of inhibition [8]	second-order rate constant of inhibition [9]	second-order rate constant of inhibition [10]	second-order rate constant of inhibition [11]	second-order rate constant of inhibition [12]	second-order rate constant of inhibition [13]	second-order rate constant of inhibition [14]	second-order rate constant of inhibition [15]
A22 WT PCI (other, Serpin; E. coli, SUMO tag removed; also called A22 wild-type (WT) PCI) APSSRRDFTFDLYRALASAAPSQNIFFSPVSISMSLAMLSLGAGSSTKMQILEGLGLNLQKSSEKELHRGFQQLLQELNQPRDGFQLSLGNALFTDLVVDLQDTFVSAMKTLYLADTFPTNFRDSAGAMKQINDYVAKQTKGKIVDLLKNLDSNAVVIMVNYIFFKAKWETSFNHKGTQEQDFYVTSETVVRVPMMSREDQYHYLLDRNLSCRVVGVPYQGNATALFILPSEGKMQQVENGLSEKTLRKWLKMFKKRQLELYLPKFSIEGSYQLEKVLPSLGISNVFTSHADLSGISNHSNIQVSEMVHKAVVEVDESGTRAAAATGTIFTFRSARLNSQRLVFNRPFLMFIVDNNILFLGKVNRP	0.02 fold	0.08 fold	0.02 fold	0.07 fold	0.68 mM⁻¹ s⁻¹	28.2 mM⁻¹ s⁻¹	0.4 fold	10.3 mM⁻¹ s⁻¹	564 mM⁻¹ s⁻¹	1310 mM⁻¹ s⁻¹	0.68 mM⁻¹ s⁻¹	28.2 mM⁻¹ s⁻¹			
A22 P1′K PCI (other, As A22 WT PCI) APSSRRDFTFDLYRALASAAPSQNIFFSPVSISMSLAMLSLGAGSSTKMQILEGLGLNLQKSSEKELHRGFQQLLQELNQPRDGFQLSLGNALFTDLVVDLQDTFVSAMKTLYLADTFPTNFRDSAGAMKQINDYVAKQTKGKIVDLLKNLDSNAVVIMVNYIFFKAKWETSFNHKGTQEQDFYVTSETVVRVPMMSREDQYHYLLDRNLSCRVVGVPYQGNATALFILPSEGKMQQVENGLSEKTLRKWLKMFKKRQLELYLPKFSIEGSYQLEKVLPSLGISNVFTSHADLSGISNHSNIQVSEMVHKAVVEVDESGTRAAAATGTIFTFRKARLNSQRLVFNRPFLMFIVDNNILFLGKVNRP	40 fold			1.7 fold	0.88 mM⁻¹ s⁻¹	0.022 mM⁻¹ s⁻¹	18900 fold	0.52 mM⁻¹ s⁻¹	322 mM⁻¹ s⁻¹	0.017 mM⁻¹ s⁻¹					
A22 P2KP1′K PCI (other, As A22 WT PCI) APSSRRDFTFDLYRALASAAPSQNIFFSPVSISMSLAMLSLGAGSSTKMQILEGLGLNLQKSSEKELHRGFQQLLQELNQPRDGFQLSLGNALFTDLVVDLQDTFVSAMKTLYLADTFPTNFRDSAGAMKQINDYVAKQTKGKIVDLLKNLDSNAVVIMVNYIFFKAKWETSFNHKGTQEQDFYVTSETVVRVPMMSREDQYHYLLDRNLSCRVVGVPYQGNATALFILPSEGKMQQVENGLSEKTLRKWLKMFKKRQLELYLPKFSIEGSYQLEKVLPSLGISNVFTSHADLSGISNHSNIQVSEMVHKAVVEVDESGTRAAAATGTIFTKRKARLNSQRLVFNRPFLMFIVDNNILFLGKVNRP	9.3 fold	12.2 fold	9.3 fold		0.28 mM⁻¹ s⁻¹		1330 fold		146 mM⁻¹ s⁻¹		0.28 mM⁻¹ s⁻¹				

Next, values leading:

fold inhibition APC/thrombin [1]	inhibition of APC/fXIa [2]	inhibition of APC/thrombin [3]	fold inhibition APC/fXa [4]	second-order rate constant of inhibition [5]	second-order rate constant of inhibition [6]	fold inhibition APC/thrombin [7]	second-order rate constant of inhibition [8]	second-order rate constant of inhibition [9]	second-order rate constant of inhibition [10]	second-order rate constant of inhibition [11]	second-order rate constant of inhibition [12]	second-order rate constant of inhibition [13]	second-order rate constant of inhibition [14]	second-order rate constant of inhibition [15]	Binder
												9 mM⁻¹ s⁻¹	0.17 mM⁻¹ s⁻¹	0.0029 mM⁻¹ s⁻¹	FL α1AT Pitts C232S P2KP1′Q (other) SDPQGDAAQKTDTSHHDQDHPTFNKITPNLAEFAFSLYRQLAHQSNSTNIFFSPVSIATAFAMLSLGTKADTHDEILEGLNFNLTEIPEAQIHEGFQELLRTLNQPDSQLQLTTGNGLFLSEGLKLVDKFLEDVKKLYHSEAFTVNFGDTEEAKKQINDYVEKGTQGKIVDLVKELDRDTVFALVNYIFFKGKWERPFEVKDTEEEDFHVDQVTTVKVPMMKRLGMFNIQHSKKLSSWVLLMKYLGNATAIFFLPDEGKLQHLENELTHDIITKFLENEDRRSASLHLPKLSITGTYDLKSVLGQLGITKVFSNGADLSGVTEEAPLKLSKAVHKAVLTIDEKGTEAAGAMFLEAIKRQIPPEVKFNKPFVFLMIEQNTKSPLFMGKVVNPTQK
												8.3 mM⁻¹ s⁻¹	0.13 mM⁻¹ s⁻¹	0.0054 mM⁻¹ s⁻¹	FL α1AT Pitts C232S P2RP1′Q (other) SDPQGDAAQKTDTSHHDQDHPTFNKITPNLAEFAFSLYRQLAHQSNSTNIFFSPVSIATAFAMLSLGTKADTHDEILEGLNFNLTEIPEAQIHEGFQELLRTLNQPDSQLQLTTGNGLFLSEGLKLVDKFLEDVKKLYHSEAFTVNFGDTEEAKKQINDYVEKGTQGKIVDLVKELDRDTVFALVNYIFFKGKWERPFEVKDTEEEDFHVDQVTTVKVPMMKRLGMFNIQHSKKLSSWVLLMKYLGNATAIFFLPDEGKLQHLENELTHDIITKFLENEDRRSASLHLPKLSITGTYDLKSVLGQLGITKVFSNGADLSGVTEEAPLKLSKAVHKAVLTIDEKGTEAAGAMFLEAIRRQIPPEVKFNKPFVFLMIEQNTKSPLFMGKVVNPTQK
